Experiment [1] deals with T1, hCLEC2D (human, UniProt Q9UHP7 1-191).
T1 construct: Overexpressed on HEK293 or K562 cells; the same id is used for endogenous CLEC2D on NALM6 and Raji cells; also called LLT1
T1 sequence: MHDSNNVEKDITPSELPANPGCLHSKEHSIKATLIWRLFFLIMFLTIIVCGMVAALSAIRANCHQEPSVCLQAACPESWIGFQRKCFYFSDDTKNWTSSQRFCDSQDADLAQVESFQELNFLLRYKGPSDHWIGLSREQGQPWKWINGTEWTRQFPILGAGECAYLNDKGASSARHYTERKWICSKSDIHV
In words: flow cytometry; 100 nM antibody on HEK293 cells expressing CLEC2D; Alexa Fluor 647 anti-human IgG; MFI. In general terms: Flow cytometry measures light scatter and fluorescence of single cells or particles in a stream.
Description: (§1) For the antibody binding assay, all cell lines were washed in phosphate-buffered saline with 0.1% bovine serum albumin (PBSA) and seeded in a 96 well plate at a density of 4×10⁴ cells per well. Washed cells were resuspended in 100 nM of antibody (a saturating concentration to measure maximum binding on cells) and incubated at room temperature for 30 minutes. […] Cells were analyzed by flow cytometry with a Thermo Fisher Attune flow cytometer.
(§2) Data were analyzed using FlowJo software. MFI for each sample was calculated and exported into Graphpad Prism.

Experiment [2] deals with T2, hKLRF1 (human, UniProt Q9NZS2 1-231).
T2 construct: Overexpressed on HEK293 cells
T2 sequence: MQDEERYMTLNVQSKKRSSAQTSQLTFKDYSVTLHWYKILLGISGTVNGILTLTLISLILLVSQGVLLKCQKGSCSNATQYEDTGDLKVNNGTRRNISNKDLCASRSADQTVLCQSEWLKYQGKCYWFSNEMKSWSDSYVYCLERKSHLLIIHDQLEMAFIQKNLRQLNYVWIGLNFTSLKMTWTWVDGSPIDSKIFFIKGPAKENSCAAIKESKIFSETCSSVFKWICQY
Description: flow cytometry; 100 nM antibody on HEK293 cells expressing KLRF1; Alexa Fluor 647 anti-human IgG; MFI.
Description: as §1, §2

The target of experiment [3] is T3, hCLEC12B (human, UniProt Q2HXU8 1-276).
T3 construct: Overexpressed on HEK293 cells
T3 sequence: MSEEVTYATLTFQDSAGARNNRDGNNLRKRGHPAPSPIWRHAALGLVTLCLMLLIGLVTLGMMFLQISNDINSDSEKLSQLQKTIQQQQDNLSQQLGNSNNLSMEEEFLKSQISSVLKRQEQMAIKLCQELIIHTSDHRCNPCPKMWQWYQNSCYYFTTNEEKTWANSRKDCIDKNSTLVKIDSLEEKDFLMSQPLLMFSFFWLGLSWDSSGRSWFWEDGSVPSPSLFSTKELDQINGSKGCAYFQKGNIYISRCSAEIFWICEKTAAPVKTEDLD
In words: flow cytometry; 100 nM antibody on HEK293 cells expressing CLEC12B; Alexa Fluor 647 anti-human IgG; MFI.
Description: as §1, §2

The target in experiment [4] is T4, hKLRF2 (human, UniProt D3W0D1 1-207).
T4 construct: Overexpressed on HEK293 cells
T4 sequence: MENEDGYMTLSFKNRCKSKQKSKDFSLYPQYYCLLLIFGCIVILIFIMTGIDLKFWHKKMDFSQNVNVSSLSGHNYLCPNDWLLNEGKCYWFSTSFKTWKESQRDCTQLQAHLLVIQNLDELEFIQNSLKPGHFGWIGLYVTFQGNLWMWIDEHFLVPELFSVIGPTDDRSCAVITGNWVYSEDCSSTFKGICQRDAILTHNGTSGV
In words: flow cytometry; 100 nM antibody on HEK293 cells expressing KLRF2; Alexa Fluor 647 anti-human IgG; MFI.
Description: as §1, §2

Experiment [5] concerns the target T3, hCLEC12B. In words: flow cytometry, HEK293 transfectants, 100 nM antibody.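 Also: antibody applied at a saturating level and incubated with cells for 30 min at room temperature.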
Description: as §1, §2
Experiment [6] deals with T1, hCLEC2D. The description is as above.
Description: as §1, §2
In experiment [7] the target is T4, hKLRF2. The experiment is described as above.
Description: as §1, §2
Experiment [8] has as its target T2, hKLRF1. The experiment is described as above.
Description: as §1, §2
Experiment [9] addresses T3, hCLEC12B. In words: flow cytometry; 100 nM antibody on HEK293 cells expressing CLEC12B; Alexa Fluor 647 anti-human IgG; MFI. The source holds these as a separate data set.
Description: as §1, §2
Experiment [10] addresses T4, hKLRF2. Description: flow cytometry; 100 nM antibody on HEK293 cells expressing KLRF2; Alexa Fluor 647 anti-human IgG; MFI. The source holds these as a separate data set.
Description: as §1, §2
Experiment [11] deals with T2, hKLRF1. In words: flow cytometry; 100 nM antibody on HEK293 cells expressing KLRF1; Alexa Fluor 647 anti-human IgG; MFI. This is another data set of the same source.
Description: as §1, §2
Experiment [12] concerns the target T1, hCLEC2D. In words: flow cytometry; 100 nM antibody on HEK293 cells expressing CLEC2D; Alexa Fluor 647 anti-human IgG; MFI. This is another data set of the same source.
Description: as §1, §2

Read-outs that look alike come from different tables or passages of the source.

B1: Ab19 (antibody, human IgG1, V domains shown)
VH: QVQLVESGGGLVKPGGSLRLSCAASGFTFSQYYMSWIRQAPGKGLEWVSYISPSGATIYYADSVKGRFTISRDNAKNSLYLQMNSLRAEDTAVYYCARSLMATGTHLYFDLWGRGTLVTVSS
VL: DIQLTQSPSSVSASVGDRVTITCRASQGISSWLAWYQQKPGKAPKLLIYAASALQSGVPSRFSGSGSGTDFTLTISSLQPEDFATYYCQQVTSAPPYTFGGGTKVEIK
notes: IgG purified from yeast culture
With B1, the binding result in the experiment with hCLEC2D [1], with hKLRF1 [2], with hCLEC12B [3] and with hKLRF2 [4] was “no binding (tested: 100 nM)” in each case. For the same molecule, the “% of CD161 binding” value was found to be 0.26% with hCLEC12B [5], 0.97% with hCLEC2D [6], 0.22% with hKLRF2 [7] and 0.305% with hKLRF1 [8].

B2: Ab7 (antibody, human IgG1, V domains shown)
VH: EVQLLESGGGLVQPGGSLRLSCAASGFTFGQYAMSWVRQAPGKGLEWVSAISAAGGTTYYADSVKGRFTISRDNSKNTLYLQMNSLRAEDTAVYYCAKPLDSSQWADFDLWGRGTLVTVSS
VL: DIQLTQSPSSVSASVGDRVTITCRASQGISSWLAWYQQKPGKAPKLLIYAASFLQSGVPSRFSGSGSGTDFTLTISSLQPEDFATYYCQQASVLPITFGGGTKVEIK
notes: as for B1
Regarding B2, the binding result in the experiment with hCLEC12B [9], with hKLRF2 [10], with hKLRF1 [11] and with hCLEC2D [12] was “no binding (tested: 100 nM)” throughout. Moreover, the “% of CD161 binding” value with hCLEC12B [5] is 0.011%; with hCLEC2D [6], 1.09%; with hKLRF2 [7], 0.04%; with hKLRF1 [8], 0.018%.

B3: Ab2 (antibody, human IgG1, V domains shown)
VH: EVQLLESGGGLVQPGGSLRLSCAASGFAFSTYAMSWVRQAPGKGLEWVSAISGVGGTTYYADSVKGRFTISRDNSKNTLYLQMNSLRAEDTAVYYCAKPLDSSLWADFDLWGRGTLVTVSS
VL: DIQLTQSPSSVSASVGDRVTITCRASQGISSWLAWYQQKPGKAPKLLIYYASSLQDGVPSRFSGSGSGTDFTLTISSLQPEDFATYYCQQASVLPITFGGGTKVEIK
notes: as for B1
Take B3: the binding result in the experiment with hCLEC12B [9], with hKLRF2 [10], with hKLRF1 [11] and in the experiment with hCLEC2D [12] was “no binding (tested: 100 nM)” each time. Further, the “% of CD161 binding” value in the experiment with hCLEC12B [5] was determined as 0.057%; with hCLEC2D [6] it was 0.863%; with hKLRF2 [7], 0.049%; with hKLRF1 [8], 0.032%.

B4: Ab6 (antibody, human IgG1, V domains shown)
VH: EVQLLESGGGLVQPGGSLRLSCAASGFTFGQYAMSWVRQAPGKGLEWVSAISAAGGTTYYADSVKGRFTISRDNSKNTLYLQMNSLRAEDTAVYYCAKPLDSSQWADFDLWGRGTLVTVSS
VL: DIQLTQSPSSVSASVGDRVTITCRASQGISSWLAWYQQKPGKAPKLLIYAASSLQSGVPSRFSGSGSGTDFTLTINSLQPEDFATYYCQQAWVLPITFGGGTKVEIK
notes: as for B1
With B4, the binding result with hCLEC12B [9], with hKLRF2 [10], in the experiment with hKLRF1 [11] and in the experiment with hCLEC2D [12] was “no binding (tested: 100 nM)” in each case. Moreover, the “% of CD161 binding” value with hCLEC12B [5] is 0.011%; with hCLEC2D [6] it was 1.01%; in the experiment with hKLRF2 [7], 0.029%; with hKLRF1 [8], 0.036%.

B5: Ab4 (antibody, human IgG1, V domains shown)
VH: EVQLLESGGGLVQPGGSLRLSCAASGFTFERYAMSWVRQAPGKGLEWVSAISAVGGTTKYADSVKGRFTISRDNSKNTLYLQMNSLRAEDTAVYYCAKPLDSSLWADFDAWGRGTLVTVSS
VL: DIQLTQSPSSVSASVGDRVTITCRASQGISSWLAWYQQKPGKAPKLLIYAASGLQSGVPSRFSGSGSGTDFTLTISSLQPEDFATYYCQQASYLPITFGGGTKVEIK
notes: as for B1
In the case of B5, the binding result in the experiment with hCLEC12B [9], with hKLRF2 [10], in the experiment with hKLRF1 [11] and with hCLEC2D [12] was “no binding (tested: 100 nM)” each time. The “% of CD161 binding” value was 0.074% with hCLEC12B [5], 1.11% in the experiment with hCLEC2D [6], 0.056% in the experiment with hKLRF2 [7] and 0.095% with hKLRF1 [8].

B6: Ab8 (antibody, human IgG1, V domains shown)
VH: EVQLLESGGGLVQPGGSLRLSCAASGFTFGTFAMSWVRQAPGKGLEWVSAISGVGGTTYYADSVKGRFTISRDNSKNTLYLQMNSLRAEDTAVYYCAKPLDSSFWADFDLWGRGTLVTVSS
VL: DIQLTQSPSSVSASVGDRVTITCRASQTISSWLAWYQQKPGKAPKLLIYAASSLQSGVPSRFSGSGSGTDFTLTISSLQPEDFATYYCQQQSVLPITFGGGTKVEIK
notes: as for B1
On to B6, for which the binding result with hCLEC12B [9], with hKLRF2 [10], in the experiment with hKLRF1 [11] and in the experiment with hCLEC2D [12] was “no binding (tested: 100 nM)” throughout. Further, the “% of CD161 binding” value was found to be 0.049% with hCLEC12B [5], 0.846% with hCLEC2D [6], 0.038% with hKLRF2 [7] and 0.031% with hKLRF1 [8].

B7: Ab5 (antibody, human IgG1, V domains shown)
VH: EVQLLESGGGLVQPGGSLRLSCAASGFTFGQYAMSWVRQAPGKGLEWVSAISAVGGTTAYADSVKGRFTISRDNSKNTLYLQMNSLRAEDTAVYYCAKPLDSSLWADFQLWGRGTLVTVSS
VL: DIQLTQSPSSVSASVGDRVTITCRASQDISSWLAWYQQKPGKAPKLLIYFASSLQSGVPSRFSGSGSGTDFTLTISSLQPEDFATYYCQQASKLPITFGGGTKVEIK
notes: as for B1
Take B7: the binding result in the experiment with hCLEC12B [9], with hKLRF2 [10], with hKLRF1 [11] and with hCLEC2D [12] was “no binding (tested: 100 nM)” in each case. For the same molecule, the “% of CD161 binding” value stood at 0.056% with hCLEC12B [5], 0.872% in the experiment with hCLEC2D [6], 0.035% in the experiment with hKLRF2 [7] and 0.059% with hKLRF1 [8].

B8: Ab1 (antibody, human IgG1, V domains shown)
VH: EVQLLESGGGLVQPGGSLRLSCAASGFAFSTYAMSWVRQAPGKGLEWVSAISAAGGTTYYADSVKGRFTISRDNSKNTLYLQMNSLRAEDTAVYYCAKPLDSSLWADFDLWGRGTLVTVSS
VL: DIQMTQSPSSVSASVGDRVTITCRASQGIDSWLAWYQQKPGKAPKLLIYAASSLQSGVPSRFSGSGSGTDFTLTISSLQPEDFATYYCQQASVLPITFGGGTKVEIK
notes: as for B1
Take B8: the binding result with hCLEC12B [9], with hKLRF2 [10], with hKLRF1 [11] and with hCLEC2D [12] was “no binding (tested: 100 nM)” in each case. Moreover, the “% of CD161 binding” value with hCLEC12B [5] came to 0.04%; with hCLEC2D [6], 0.975%; with hKLRF2 [7], 0.036%; with hKLRF1 [8], 0.073%.

The values are drawn from patent publication US20250243281A1 (IMMUNITAS THERAPEUTICS, published 2025).
